In assay [1] the target is T1, full length human tau protein 2N4R (hT40) (human, UniProt P10636 1-758).
T1 construct: recombinant; also called T441
Put plainly: ELISA. The method, then: (§1) A series of binding ELISA was performed using various truncated versions of the tau protein and 13mer peptide libraries spanning the entire hT40 molecule for mapping the epitopes of anti-tau scAbs (Full list of protein antigens used is given in Table 14). In general, ELISA plates were coated with 1 μg/ml hT40 or dGA or dGAE or other truncated versions of the protein and in the case of biotinylated peptides, plates were coated with 5 μg/ml Streptavidin followed by 1 μg/ml biotinylated peptide. The plates were blocked with 2% MPBS and scAb samples added at desired starting concentrations and double diluted across the plate. Binding was detected using anti-Human C Kappa HRP conjugated secondary antibody and the resulting immunoreaction was developed and absorbance values measured as described above.

The target in another assay is tau fragment 348-441 (human, UniProt P10636 665-758). Nature of the assay: direct ELISA.
In assay [2] the target is T2, human tau (hT40) with P301S and G335D of Line 66 mice (human, UniProt P10636 1-758).
T2 construct: transgene product in brain homogenate or plasma; also called L66 human tau
Put plainly: Western blot.

Another assay concerns the target T3, mouse tau (mouse, UniProt P10637 2-733).
T3 construct: endogenous protein of mouse brain or plasma; also called endogenous mouse tau
Nature of the assay: Western blot of brain homogenates.

The target in assay [3] is T4, human tau fragment 296-390 of Line 1 mice (human, UniProt P10636 613-707).
T4 construct: also called L1 fragment; 10-kDa tau fragment
Nature of the assay: Western blot of brain homogenates.

Assay [4] addresses T1, full length human tau protein 2N4R …. Nature of the assay: SPR, hT40 immobilised, mAb analyte. The method, then: For anti-tau mAb SPR measurements, htau40 was conjugated to the surface of a CM5 sensor chip using amine coupling as explained previously. Briefly, 2 μg/mL htau40 in 10 mM Sodium acetate buffer (pH 4.0) was passed over the activated chip surface (EDC/NHS) in flow cell 2 for a period for 45 s followed by blocking with 1 M ethanolamine-HCl PH 8.5. Flow cell 1 was set up as reference control and blocked simultaneously. Final immobilisation level of htau40 (Rmax) was approximately 250 RU. […] The mAb was added for a 120 s association period and 600 s dissociation period followed by a regeneration cycle of 30 s injection of glycine buffer pH 1.5 in between each cycle. Binding responses were analysed in Biacore X100 evaluation software and data fitted to a 1:1 binding model to obtain kinetic and affinity characterisation.
Target sequence in this assay (P10636 other isoform, or with tags, fused parts or gaps limits assumed): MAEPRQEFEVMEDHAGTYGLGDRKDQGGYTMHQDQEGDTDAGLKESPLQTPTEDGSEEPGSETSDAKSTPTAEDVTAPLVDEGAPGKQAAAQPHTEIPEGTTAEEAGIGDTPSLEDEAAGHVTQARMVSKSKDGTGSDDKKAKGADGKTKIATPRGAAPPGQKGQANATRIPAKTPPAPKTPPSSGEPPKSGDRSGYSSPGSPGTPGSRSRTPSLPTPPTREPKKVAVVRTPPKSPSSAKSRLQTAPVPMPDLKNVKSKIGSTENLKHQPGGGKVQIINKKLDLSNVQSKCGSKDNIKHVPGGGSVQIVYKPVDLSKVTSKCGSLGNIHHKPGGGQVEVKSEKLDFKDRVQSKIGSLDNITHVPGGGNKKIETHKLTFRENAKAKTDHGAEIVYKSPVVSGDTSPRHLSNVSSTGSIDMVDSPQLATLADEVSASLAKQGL

In a further assay the target is T5, aggregated dGAE (human, UniProt P10636 614-708, limits assumed).
T5 construct: dGAE aggregated in vitro with DTT, 700 rpm, 37 C, 24 h; also called dGAE aggregates; dGAE agg
Nature of the assay: capture ELISA, mAb coated at 1 µg/ml, S1G2 scAb detection.

The target in assay [5] is T1, full length human tau protein 2N4R …. Nature of the assay: hT40 ELISA.
Target sequence in this assay (P10636 other isoform, or with tags, fused parts or gaps limits assumed): as above
For assay [6], the target named is T6, dGAE (tau 297-391) (human, UniProt P10636 614-708).
T6 construct: monomer; also called dGAE95
Put plainly: direct ELISA.

The target of a further assay is T7, tau fragment 369-390 (human).
T7 peptide: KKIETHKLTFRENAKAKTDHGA
Nature of the assay: direct ELISA.

The next assay addresses T8, tau fragment 369-391 (human).
T8 peptide: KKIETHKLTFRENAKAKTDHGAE
Put plainly: direct ELISA.

Assay [7] concerns the target T6, dGAE (tau 297-391). Nature of the assay: ELISA. The method, then:
as §1

For another assay, the target named is dGA (tau 297-390) (human, UniProt P10636 614-707). Put plainly: ELISA. The method, then: as §1
The next assay concerns the target tau fragment 337-368 (human). Nature of the assay: direct ELISA.
Another assay deals with tau fragment 275-305 (human). Put plainly: direct ELISA.
Chain of tau fragment 275-305 (human) (peptide, as listed by the source): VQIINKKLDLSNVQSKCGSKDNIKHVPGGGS

T2 sequence (P10636 other isoform, or with tags, fused parts or gaps P301S G335D P301S G335D limits assumed): as the sequence (P10636 other isoform, or with tags, fused parts or gaps limits assumed) above, with P301S, G335D counted along it
T3 sequence (P10637 other isoform, or with tags, fused parts or gaps limits assumed): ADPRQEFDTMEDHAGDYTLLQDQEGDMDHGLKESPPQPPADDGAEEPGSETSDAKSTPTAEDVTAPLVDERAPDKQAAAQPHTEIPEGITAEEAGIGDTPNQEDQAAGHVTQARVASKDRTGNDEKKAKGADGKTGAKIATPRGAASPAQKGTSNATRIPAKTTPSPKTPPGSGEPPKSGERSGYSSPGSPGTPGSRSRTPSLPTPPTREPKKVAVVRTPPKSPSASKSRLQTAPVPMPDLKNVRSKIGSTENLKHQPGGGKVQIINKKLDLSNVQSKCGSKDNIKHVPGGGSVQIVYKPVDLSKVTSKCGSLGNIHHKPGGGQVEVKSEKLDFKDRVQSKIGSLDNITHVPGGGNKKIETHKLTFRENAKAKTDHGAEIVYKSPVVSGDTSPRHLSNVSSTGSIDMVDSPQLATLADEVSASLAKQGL
Chain of tau fragment 348-441 (P10636 665-758): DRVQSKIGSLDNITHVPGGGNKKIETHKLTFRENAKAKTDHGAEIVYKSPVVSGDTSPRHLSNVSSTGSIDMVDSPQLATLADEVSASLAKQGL
Chain of tau fragment 337-368 (human) (peptide, as listed by the source): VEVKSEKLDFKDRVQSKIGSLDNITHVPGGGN

B1: CB2 scAb (scFv, not shown: small tags and cut ends)
scFv: QVQLQESGPSLVKPSQTLSLTCTVSGFSLSTNSVGWVRQAPGKAPEWVAGIDTDGEEGFNPVLKSRLSITRDTSKSQVSLSLSNVTSEDTAVYYCGRSYRTDGLAYGYVQAIDYWGPGLLVTISSEGKSSGASGESKVDDQSVLTQPSSVSGSPGQTVSITCSGSYIGSSGVGWFQQLPGSGLRTIIVASDGRPSGVPDRFSMSKSGNTATLTISSLQAEDEADYFCGSSDRTQYTGLFGSGTRLTVLG
notes: scAb
Turning to B1, the binding result (in [1]; in the assay with tau fragment 348-441) was “binds” throughout.

B2: CC7 mAb (antibody, mouse IgG2a, V domains shown)
VH: QVQLQESGPSLVKPSQTLSLTCTVSGFSLTSNAVIWVRQAPGKAPEWVALIDVDGDAAYDPALKSRLSITRDTSKSQVSLSLRSVTTEDTAVYYCARDYGSWGYVSDIDYWGPGLLVTVSS
VL: RVVRTQPSSVSGSLGQRVSITCSGSYITGSSVGWFQQVPGSGLKTVIYDNNDRPSGVPDRFSGSKSGDTATLTISSLQAEDEADYYCASYDTSNIGLFGSGTRLTVLG
notes: sheep-mouse IgG2a chimeric mAb; also called CC7 antibody
B2: in assay [2], the binding result is recorded as “binds”. In addition, the binding result in the assay with mouse tau is on record as “no binding”. Moreover, the binding result in [3] is listed as “no binding”. Further, in assay [4], the Kd was 6.9 nM, the koff is 0.0316 s⁻¹ and the kon came out at 4.58e+06 M⁻¹ s⁻¹.

B3: CB7 mAb (antibody, mouse IgG2a, V domains shown)
VH: QVQLQESGPSLVKPSQTLSLTCTVSGFSLTNYRVGWVRQAPGKALEWVSNIRSGGTTWYNPALKSRLSITADTSKSQVSLSLSSVTTEDTAVYYCARDSSGDLYAYDYWGPGLLVTVSS
VL: QAVLTQPSSVSRSLGQSVSMTCSGSSSNVGYGNYMAWFQQVPGSAPKLLIYGATSRASGVPDRFSGSRSGNTATLTISSLQAEDEADYYCASYDSTSGGVFGSGTRLTVLG
notes: sheep-mouse IgG2a chimeric mAb; also called CB7 antibody
On to B3, for which the binding result in [2] is given as “binds”; in the assay with mouse tau it was “no binding”; in [3], “no binding”; with aggregated dGAE it was “no binding (tested: 800 nM)”. In assay [4], this molecule yielded a Kd of 3.7 nM. This molecule came in with a koff in assay [4] of 0.00945 s⁻¹. In addition, the kon in [4] was 2.57e+06 M⁻¹ s⁻¹.

B4: S1F4 scAb (scFv, not shown: small tags and cut ends)
scFv: QVQLQESGPSLVKPSQTLSLTCTVSGFSLSSNSVGWVRQAPGKAPEWVAGIDTDGEEGYNPALNSRLSITRDTSKSQVSLSLSSVTSEDTAVYYCVRSYRADGLAYGYVQAIDYWGPGLLLTISSEGKSSGASGESKVDDQAVVTQPSSVSGSLGQRVSITCSGSFIGISSVGWFQQLPGSGLRTVIVASDGRPSGVPDRFSNSKSGNTATLTISSLQAEDEADYFCGSSDRTQYTGVFGSGTRLTVLG
notes: scAb
For the molecule B4, the “EC50 (read off the curve)” value in assay [5] was ~0.05 µg/mL; in the assay with dGAE (tau 297-391) [6], ~0.3 µg/mL; with tau fragment 369-390, ~2 µg/mL. Moreover, in the assay with tau fragment 369-391, the binding result is reported as “binds”.

B5: NS1G7 scAb (scFv, not shown: small tags and cut ends)
scFv: QVQLQESGPSLVKPSQTLSLTCTVSGFSLTSYGVGWVRQAPGKTLEWISSISSGGTTFYNPALKSRLSITRDTSESQVSLSLSSVTTEDTAVYYCTRDVHIYYNDYGAAYGDRDYWGPGLLVTVSSEGKSSGASGESKVDDQAVVTQPPSVSGSPGQRVSITCSGSSSNIGGGNYVSWYQQLPGSGLRTLIYGTTSRASGVPDRFSGSGSGNTATLTISSLQAEDEADYYCASYDTNSGSVFGSGTRLTVLG
notes: scAb
Turning to B5, the binding result (in assay [1]; with dGAE (tau 297-391) [7]; with dGA (tau 297-390); in the assay with tau fragment 337-368; with tau fragment 275-305) was “binds” throughout.

For the origin of these results see patent publication US20250355001A1 (GTINVENT, published 2025).
